Changes are numbered by the printed parent chain. In names and notes the source's numbering stands. Several values for one entry are separate records, joined by “and”; a condition that tells them apart may be missing. Equal entries are not always repeated.
B1: Erv1^CXXS (Erv1C33S) (enzyme, S. cerevisiae, UniProt P27882 1-189, looked up)
chain: MKAIDKMTDNPPQEGLSGRKIIYDEDGKPCRSSNTLLDFQYVTGKISNGLKNLSSNGKLAGTGALTGEASELMPGSRTYRKVDPPDVEQLGRSSWTLLHSVAASYPAQPTDQQKGEMKQFLNIFSHIYPCNWCAKDFEKYIRENAPQVESREELGRWMCEAHNKVNKKLRKPKFDCNFWEKRWKDGWDE
notes: Erv1, S. cerevisiae, full length, second shuttle cysteine changed to serine
B2: Erv1 redox active-site disulfide double cysteine mutant (C130/C133S) (enzyme, S. cerevisiae, UniProt P27882 1-189, looked up)
chain: B1 chain with S33C, C130S, C133S
notes: Erv1, S. cerevisiae, full length, both active-site cysteines changed to serine; also called Erv1^CCSS
B3: Erv1 (essential for respiration and viability 1), wild-type (enzyme, S. cerevisiae, UniProt P27882 1-189, looked up)
chain: B1 chain with S33C
notes: Erv1, FAD-dependent thiol oxidase of the mitochondrial intermembrane space, S. cerevisiae, full length; Construct in pET24a(+) via Nde1/Xho1; also called WT Erv1; WT
B4: Erv1^SXXC (Erv1C30S) (enzyme, S. cerevisiae, UniProt P27882 1-189, looked up)
chain: B1 chain with C30S, S33C
notes: Erv1, S. cerevisiae, full length, first shuttle cysteine changed to serine; Found as a tetramer (peak 1, yellow) and a dimer (peak 2, black, charge-transfer complex)
B5: Mia40^CPS, core domain Mia40c (amino acids 284-403) with the second cysteine of the CPC motif changed to serine (domain or fragment, S. cerevisiae, UniProt P36046 284-403, looked up)
chain: AYNPDTGEINWDCPSLGGMAHGPCGEEFKSAFSCFVYSEAEPKGIDCVEKFQHMQDCFRKYPEHYAEQLKETSDDEEPQDKVKVNTIESAPNVSSAKENAAKKAEQSDVKKEPLNEESKP
notes: Mia40, S. cerevisiae, core domain Mia40c, residues 284-403 (~15 kDa); second cysteine of the CPC motif (Cys298) changed to serine; source: purified (glutathione-Sepharose 4B, thrombin cleavage, Superdex 75)
B6: Mia40^SPC, core domain Mia40c (amino acids 284-403) with the first cysteine of the CPC motif changed to serine (domain or fragment, S. cerevisiae, UniProt P36046 284-403, looked up)
chain: B5 chain with C13S, S15C
notes: Mia40, S. cerevisiae, core domain Mia40c, residues 284-403 (~15 kDa); first cysteine of the CPC motif (Cys296) changed to serine; source: purified (glutathione-Sepharose 4B, thrombin cleavage, Superdex 75)

Assays:
Cys30 = Cys30 (UniProt position 30, EDGKPCRSSNT); experiment: chemical modification (monobromobimane alkylation) with fluorescence detection; details: 25°C; I = 0.15 M (constant ionic strength buffers, 120 mM NaCl); 15 mM acetic acid, 15 mM Mes and 30 mM Tris (pH 3.5–9.0), or 30 mM Aces, 15.6 mM Tris and 15.6 mM ethanolamine (pH 5.7–10). Both contained 120 mM NaCl and 0.1 mM DTPA.; Folded, FAD-bound. The single shuttle cysteine is reduced (free thiol, confirmed by AMS modification), and the active-site cysteines are replaced by serine.
Cys33 = Cys33 (UniProt position 33, KPSRSCNTLLD); experiment: as above; details: 25°C; I = 0.15 M (constant ionic strength buffers, 120 mM NaCl); 15 mM acetic acid, 15 mM Mes and 30 mM Tris (pH 3.5–9.0), or 30 mM Aces, 15.6 mM Tris and 15.6 mM ethanolamine (pH 5.7–10). Both contained 120 mM NaCl and 0.1 mM DTPA.; Folded, FAD-bound. The single shuttle cysteine is reduced (free thiol, confirmed by AMS modification), and the active-site cysteines are replaced by serine.
[1] = biological target: the molecule itself; experiment: SEC; Superdex 75 in buffer A (50 mM Tris/HCl pH 7.4, 150 mM NaCl); elution position compared with the Erv1 tetramer
[2] = biological target: the molecule itself; experiment: non-reducing SDS/PAGE (intermolecular disulfide-bonded dimer); gel-filtration fractions of the purified proteins on Tris/Tricine SDS/PAGE (16% gel) under reducing and non-reducing conditions
[3] = biological target: the molecule itself; experiment: SEC-MALS; Superdex 200 10/30 in buffer A (150 mM NaCl, 50 mM Tris/HCl pH 7.4), in-line DAWN EOS photometer and Optilab rEX refractor; the two gel-filtration peaks of the protein
Erv1^CXXS (Erv1C33S) = biological target: B1; experiment: mixed disulfide trapping, non-reducing SDS/PAGE and Western blot; single cysteine mutants pre-treated with 2 mM TCEP, exchanged to buffer A, incubated at 5 uM each for 20 min at room temperature (stopped with 2.5 mM AMS, or 1 mM DTT as reducing control), or 50 uM Mia40 and 5 uM Erv1 over 10 min (stopped with 20 mM IAM); detected with an antibody against Erv1; details: both partners purified
Erv1^SXXC (Erv1C30S) = biological target: B4; experiment: as above; details: both partners purified

## Mitochondrial FAD-linked sulfhydryl (thiol) oxidase Erv1, triple mutant Erv1^CSSS (C33S/C130S/C133S) (Saccharomyces cerevisiae; C33S;C130S;C133S)
Cys30
  pKa: 8.39±0.12

## Mitochondrial FAD-linked sulfhydryl (thiol) oxidase Erv1, triple mutant Erv1^SCSS (C30S/C130S/C133S) (Saccharomyces cerevisiae; C30S;C130S;C133S)
Cys33
  pKa: 8.41±0.06

## B1
[1]
  stoichiometry N: 4

## B2
[2]
  binding result: binds

## B3
[2]
  binding result: binds

## B4
[3]
  stoichiometry N: 4 and 2

## B5
Erv1^CXXS (Erv1C33S)
  binding result: binds
Erv1^SXXC (Erv1C30S)
  binding result: binds

## B6
Erv1^CXXS (Erv1C33S)
  binding result: binds
Erv1^SXXC (Erv1C30S)
  binding result: binds

Source: publication PMC4019985, “Mitochondrial thiol oxidase Erv1: both shuttle cysteine residues are required for its function with distinct roles” (Biochemical Journal, 2014)
